Assay results from patent US20110195849A1 (DUKE UNIVERSITY, published 2011).

What was measured:
[1] = molecular target: T1, MutSβ (MSH2-MSH3) (human, UniProt P43246 2-934; P20585 1-1137); experiment: SPRS, MutLα varied with 0.10 µM MutSβ on heteroduplex DNA, 1 mM ATP
T1 construct: mature;range 1-1137; Recombinant heterodimer from baculovirus-infected Sf9 cells; 232 kDa; also called wild type MutSβ; MSH2-MSH3 heterodimer
Text: MutSβ PIP box mutants are defective in MutLα interaction—Interaction between MutS and MutL homologs has been documented in several systems (3, 4), but the nature of the human MutLα-MutSβ complex has not been addressed. We have therefore used SPRS to examine the capacity of MutSβ and its PIP box mutants to support formation of a MutLα-MutSβ-DNA ternary complex. With reference to FIG. 2A, ATP-dependent assembly of the MutLα-MutSβ-DNA ternary complex was scored by SPRS using a 200 bp -TG- I/D heteroduplex (solid lines) or homoduplex (dashed lines) DNA. […] Similar analyses were performed with MutSβΔ28 (middle panel) and MutSβ-F27A-F28A. […] This mass increase was not observed in the absence of ATP (not shown), and we were unable to detect DNA binding by MutLα alone (not shown). The latter results are consistent with previous findings that assembly of ternary complexes involving MutL and MutS homologs is ATP-dependent and that DNA binding by MutL homologs is limited at physiological ionic strength (17, 25, 35-38). The lifetime of the ternary complex is also short, with 80% dissociating with a t_{1/2} of 7s. […] Complex formation on homoduplex DNA (open symbols) was not saturable.

[2] = molecular target: T1, MutSβ (MSH2-MSH3); experiment: SPRS, MutLα-MutSβ-DNA ternary complex

T1 sequence (P43246 2-934 limits assumed, chain 1 of 2): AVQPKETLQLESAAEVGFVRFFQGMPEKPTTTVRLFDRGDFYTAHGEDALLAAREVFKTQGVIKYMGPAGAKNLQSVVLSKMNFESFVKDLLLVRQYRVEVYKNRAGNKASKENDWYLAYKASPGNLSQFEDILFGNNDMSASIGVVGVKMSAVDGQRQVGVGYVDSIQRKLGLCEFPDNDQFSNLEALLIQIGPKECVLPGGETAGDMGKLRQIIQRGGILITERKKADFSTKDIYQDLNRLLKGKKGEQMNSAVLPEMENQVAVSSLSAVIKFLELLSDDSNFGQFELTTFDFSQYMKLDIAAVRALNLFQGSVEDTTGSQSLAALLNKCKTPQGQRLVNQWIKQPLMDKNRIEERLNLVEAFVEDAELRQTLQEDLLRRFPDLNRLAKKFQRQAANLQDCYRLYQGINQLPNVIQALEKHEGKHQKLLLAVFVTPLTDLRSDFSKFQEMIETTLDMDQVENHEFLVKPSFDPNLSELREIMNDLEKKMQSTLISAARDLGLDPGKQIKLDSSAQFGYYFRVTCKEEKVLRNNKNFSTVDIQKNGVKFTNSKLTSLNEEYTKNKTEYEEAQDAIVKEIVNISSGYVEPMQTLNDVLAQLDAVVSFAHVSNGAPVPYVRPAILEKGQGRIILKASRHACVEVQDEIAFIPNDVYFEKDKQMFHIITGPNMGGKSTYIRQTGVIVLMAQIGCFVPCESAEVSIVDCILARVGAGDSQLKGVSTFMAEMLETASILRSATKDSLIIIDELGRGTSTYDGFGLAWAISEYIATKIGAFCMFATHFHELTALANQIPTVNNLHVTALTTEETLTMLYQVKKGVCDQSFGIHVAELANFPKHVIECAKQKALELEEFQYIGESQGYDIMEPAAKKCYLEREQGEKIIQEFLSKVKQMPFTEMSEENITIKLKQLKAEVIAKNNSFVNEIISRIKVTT
T1 sequence (P20585 whole entry, chain 2 of 2): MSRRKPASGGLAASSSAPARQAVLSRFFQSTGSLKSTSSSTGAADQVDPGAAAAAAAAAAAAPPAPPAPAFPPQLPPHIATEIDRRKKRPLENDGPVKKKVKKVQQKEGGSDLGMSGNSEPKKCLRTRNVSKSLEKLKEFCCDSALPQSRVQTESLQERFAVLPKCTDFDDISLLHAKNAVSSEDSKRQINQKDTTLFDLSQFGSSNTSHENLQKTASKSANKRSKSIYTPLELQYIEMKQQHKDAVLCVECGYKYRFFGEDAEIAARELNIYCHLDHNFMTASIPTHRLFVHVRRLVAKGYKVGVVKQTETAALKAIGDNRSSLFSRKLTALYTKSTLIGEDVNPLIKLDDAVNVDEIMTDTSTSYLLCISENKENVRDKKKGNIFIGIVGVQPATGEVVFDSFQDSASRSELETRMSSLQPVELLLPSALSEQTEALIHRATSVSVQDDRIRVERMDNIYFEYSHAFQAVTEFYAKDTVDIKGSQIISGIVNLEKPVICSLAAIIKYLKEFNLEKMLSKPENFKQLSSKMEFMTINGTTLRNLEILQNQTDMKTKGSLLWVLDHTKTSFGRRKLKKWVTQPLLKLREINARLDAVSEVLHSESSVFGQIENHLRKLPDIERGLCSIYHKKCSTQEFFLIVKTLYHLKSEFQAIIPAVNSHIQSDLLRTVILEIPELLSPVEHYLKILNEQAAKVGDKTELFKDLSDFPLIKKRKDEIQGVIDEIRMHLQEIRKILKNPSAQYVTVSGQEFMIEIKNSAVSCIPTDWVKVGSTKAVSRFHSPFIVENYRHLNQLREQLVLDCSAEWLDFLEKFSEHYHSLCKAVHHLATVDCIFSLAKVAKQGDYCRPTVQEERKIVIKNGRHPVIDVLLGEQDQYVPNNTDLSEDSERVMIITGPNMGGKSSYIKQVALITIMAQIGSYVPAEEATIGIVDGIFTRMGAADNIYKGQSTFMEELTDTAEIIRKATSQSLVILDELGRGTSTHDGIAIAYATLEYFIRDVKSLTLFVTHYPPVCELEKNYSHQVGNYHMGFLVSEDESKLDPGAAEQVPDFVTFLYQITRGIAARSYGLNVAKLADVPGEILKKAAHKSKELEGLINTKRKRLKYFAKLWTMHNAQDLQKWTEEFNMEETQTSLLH

Kd [1]: 400 nM
t1/2 of dissociation of the ternary complex [2]: 7 s
B1: MutLα (MLH1-PMS2) (enzyme, human)
chain 1: MSFVAGVIRRLDETVVNRIAAGEVIQRPANAIKEMIENCLDAKSTSIQVIVKEGGLKLIQIQDNGTGIRKEDLDIVCERFTTSKLQSFEDLASISTYGFRGEALASISHVAHVTITTKTADGKCAYRASYSDGKLKAPPKPCAGNQGTQITVEDLFYNIATRRKALKNPSEEYGKILEVVGRYSVHNAGISFSVKKQGETVADVRTLPNASTVDNIRSIFGNAVSRELIEIGCEDKTLAFKMNGYISNANYSVKKCIFLLFINHRLVESTSLRKAIETVYAAYLPKNTHPFLYLSLEISPQNVDVNVHPTKHEVHFLHEESILERVQQHIESKLLGSNSSRMYFTQTLLPGLAGPSGEMVKSTTSLTSSSTSGSSDKVYAHQMVRTDSREQKLDAFLQPLSKPLSSQPQAIVTEDKTDISSGRARQQDEEMLELPAPAEVAAKNQSLEGDTTKGTSEMSEKRGPTSSNPRKRHREDSDVEMVEDDSRKEMTAACTPRRRIINLTSVLSLQEEINEQGHEVLREMLHNHSFVGCVNPQWALAQHQTKLYLLNTTKLSEELFYQILIYDFANFGVLRLSEPAPLFDLAMLALDSPESGWTEEDGPKEGLAEYIVEFLKKKAEMLADYFSLEIDEEGNLIGLPLLIDNYVPPLEGLPIFILRLATEVNWDEEKECFESLSKECAMFYSIRKQYISEESTLSGQQSEVPGSIPNSWKWTVEHIVYKALRSHILPPKHFTEDGNILQLANLPDLYKVFERC
chain 2: MERAESSSTEPAKAIKPIDRKSVHQICSGQVVLSLSTAVKELVENSLDAGATNIDLKLKDYGVDLIEVSDNGCGVEEENFEGLTLKHHTSKIQEFADLTQVETFGFRGEALSSLCALSDVTISTCHASAKVGTRLMFDHNGKIIQKTPYPRPRGTTVSVQQLFSTLPVRHKEFQRNIKKEYAKMVQVLHAYCIISAGIRVSCTNQLGQGKRQPVVCTGGSPSIKENIGSVFGQKQLQSLIPFVQLPPSDSVCEEYGLSCSDALHNLFYISGFISQCTHGVGRSSTDRQFFFINRRPCDPAKVCRLVNEVYHMYNRHQYPFVVLNISVDSECVDINVTPDKRQILLQEEKLLLAVLKTSLIGMFDSDVNKLNVSQQPLLDVEGNLIKMHAADLEKPMVEKQDQSPSLRTGEEKKDVSISRLREAFSLRHTTENKPHSPKTPEPRRSPLGQKRGMLSSSTSGAISDKGVLRPQKEAVSSSHGPSDPTDRAEVEKDSGHGSTSVDSEGFSIPDTGSHCSSEYAASSPGDRGSQEHVDSQEKAPKTDDSFSDVDCHSNQEDTGCKFRVLPQPTNLATPNTKRFKKEEILSSSDICQKLVNTQDMSASQVDVAVKINKKVVPLDFSMSSLAKRIKQLHHEAQQSEGEQNYRKFRAKICPGENQAAEDELRKEISKTMFAEMEIIGQFNLGFIITKLNEDIFIVDQHATDEKYNFEMLQQHTVLQGQRLIAPQTLNLTAVNEAVLIENLEIFRKNGFDFVIDENAPVTERAKLISLPTSKNWTFGPQDVDELIFMLSDSPGVMCRPSRVKQMFASRACRKSVMIGTALNTSEMKKLITHMGEMDHPWNCPHGRPTMRHIANLGVISQN
notes: Purified as in Iyer et al. (21)
